Test results published in US11766479 (ZHEJIANG SHIMAI PHARMACEUTICAL, dated 2023).

Assays:
[1] = biological target: T1, recombinant human ENPP3 (full-length extracellular domain) (human, UniProt O14638 31-875); assay: ELISA, recombinant human ENPP3 coated at 200 ng per well, detection with HRP anti-FLAG
T1 construct: extracellular domain; Bought protein; also called Human ENPP3 (CD203c) protein
T1 sequence (looked up): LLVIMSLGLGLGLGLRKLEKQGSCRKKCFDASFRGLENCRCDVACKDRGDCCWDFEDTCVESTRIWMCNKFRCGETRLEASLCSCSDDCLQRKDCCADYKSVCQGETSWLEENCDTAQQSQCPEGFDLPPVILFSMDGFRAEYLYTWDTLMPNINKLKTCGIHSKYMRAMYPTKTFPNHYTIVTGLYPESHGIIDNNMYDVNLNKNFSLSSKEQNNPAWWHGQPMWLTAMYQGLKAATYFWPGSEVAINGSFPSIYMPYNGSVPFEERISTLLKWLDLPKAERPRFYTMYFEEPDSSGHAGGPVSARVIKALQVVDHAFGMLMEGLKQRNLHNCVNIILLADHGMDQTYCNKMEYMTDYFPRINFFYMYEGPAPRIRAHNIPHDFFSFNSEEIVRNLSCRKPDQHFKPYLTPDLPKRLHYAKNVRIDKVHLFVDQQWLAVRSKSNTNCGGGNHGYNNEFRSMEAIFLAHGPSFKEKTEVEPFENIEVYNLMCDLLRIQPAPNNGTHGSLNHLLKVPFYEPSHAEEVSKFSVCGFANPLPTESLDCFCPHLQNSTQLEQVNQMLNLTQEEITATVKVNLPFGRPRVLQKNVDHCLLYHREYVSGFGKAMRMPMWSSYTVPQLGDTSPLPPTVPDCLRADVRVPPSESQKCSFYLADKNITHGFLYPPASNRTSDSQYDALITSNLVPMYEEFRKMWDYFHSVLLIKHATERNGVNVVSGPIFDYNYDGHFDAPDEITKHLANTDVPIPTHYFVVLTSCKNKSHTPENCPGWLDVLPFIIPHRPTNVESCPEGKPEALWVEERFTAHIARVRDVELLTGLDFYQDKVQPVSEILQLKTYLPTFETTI
Experimental: The hexahistidine (HHHHHH, SEQ ID NO: 35)-tagged 3A10 Fab was expressed in *E. coli* strain HB2151 and purified from the soluble fraction of periplasm by using the Ni-NTA resin. Then ELISA was performed by using standard protocols to measure binding affinity to recombinant human ENPP3 (full-length extracellular domain). Briefly, the recombinant human ENPP3 (ACROBiosystems) was coated on Corning EIA/RIA high-binding 96-well plates (Corning Inc.) at 200 ng per well overnight at 4° C. and blocked with 3% nonfat milk in PBS (pH7.4). Five-fold serially diluted antibodies were added accordingly and then incubated at room temperature for 2 h. The plates were washed with PBS containing 0.05% TWEEN® 20. Bound antibodies were detected by HRP-conjugated anti-FLAG tag antibody (Sino Biological). The assay was developed at room temperature with TMB substrate (Solarbio) and OD value was measured at 450 nm with a microplate reader.

[2] = biological target: T1, recombinant human ENPP3 (full-length …); assay: ELISA, recombinant human ENPP3 coated at 100 ng per well, detection with anti-human IgG Fc-peroxidase
Experimental: ELISA was performed according to standard protocols, to determine binding affinity of anti-ENPP3 3A10 mAb to recombinant human ENPP3 (AcroBiosystems). Briefly, recombinant human ENPP3 was coated on Corning EIA/RIA high-binding 96-well plates (Corning Inc.) at 100 ng per well overnight at 4° C. and blocked with 3% nonfat milk in PBS (pH7.4). Five-fold serially diluted antibodies were added and incubated at 37° C. for 1 h. The plates were washed with PBS containing 0.05% TWEEN® 20. Bound antibodies were detected by anti-human IgG (Fc-specific)-peroxidase antibody (Sigma). The assay was developed at room temperature with TMB substrate (Solarbio) and monitored at 450 nm with a microplate reader. The half-maximal binding ($EC50$) was calculated by fitting the data to the Langmuir adsorption isotherm.

B1: hexahistidine-tagged 3A10 Fab (Fab, V domains shown)
VH: EVQLVESGGGLVKPGGSLRLSCAASGFTFSNAWMSWVRQAPGKGLEWVSYISSSGSTIYYADSVKGRFTISRDNAKNSLYLQMNSLRAEDTAVYYCARLAGPYYFDYWGQGTLVTVSS
VL: QSVVTQPPSVSAAPGQKVTISCSGSSSNIGNNYVSWYQQLPGTAPKLLIYDNNKRPSGIPDRFSGSKSGTSATLGIDGLRTGDEAEYFCGVWDSSLRAELFAGGTKVTVL
notes: Human Fab from a phage library with a lambda light chain, made in E. coli HB2151; also called Fab 3A10; anti-ENPP3 Fab 3A10
**Q.** Which EC50 [1] does the source give for B1 here?
**A.** The EC50 was 9.17 nM.

B2: anti-ENPP3 3A10 mAb (antibody, human IgG1, lambda, V domains shown)
VH: B1 VH
VL: QSVVTQPPSVSAAPGQKVTISCSGSSSNIGNNYVSWYQQLPGTAPKLLIYDNNKRPSGIPDRFSGSKSGTSATLGIDGLRTGDEAEYFCGVWDSSLRAELFAGGTKVTVLS
notes: Intact human IgG1 with wild type Fc and a lambda light chain, expressed in 293FS cells; also called anti-ENPP3 monoclonal antibody
**Q.** For B2, which EC50 [2] is on record?
**A.** Its EC50 is 0.107 nM.
